Results on one substance are retold here after patent US20100143336A1.

The target in the test is human Toll-like Receptor 2, wild type (human) (UniProt O60603). The test can be described thus: cell-based or functional assay.
Chain of UniProt O60603 (O60603 21-784 D726E limits assumed): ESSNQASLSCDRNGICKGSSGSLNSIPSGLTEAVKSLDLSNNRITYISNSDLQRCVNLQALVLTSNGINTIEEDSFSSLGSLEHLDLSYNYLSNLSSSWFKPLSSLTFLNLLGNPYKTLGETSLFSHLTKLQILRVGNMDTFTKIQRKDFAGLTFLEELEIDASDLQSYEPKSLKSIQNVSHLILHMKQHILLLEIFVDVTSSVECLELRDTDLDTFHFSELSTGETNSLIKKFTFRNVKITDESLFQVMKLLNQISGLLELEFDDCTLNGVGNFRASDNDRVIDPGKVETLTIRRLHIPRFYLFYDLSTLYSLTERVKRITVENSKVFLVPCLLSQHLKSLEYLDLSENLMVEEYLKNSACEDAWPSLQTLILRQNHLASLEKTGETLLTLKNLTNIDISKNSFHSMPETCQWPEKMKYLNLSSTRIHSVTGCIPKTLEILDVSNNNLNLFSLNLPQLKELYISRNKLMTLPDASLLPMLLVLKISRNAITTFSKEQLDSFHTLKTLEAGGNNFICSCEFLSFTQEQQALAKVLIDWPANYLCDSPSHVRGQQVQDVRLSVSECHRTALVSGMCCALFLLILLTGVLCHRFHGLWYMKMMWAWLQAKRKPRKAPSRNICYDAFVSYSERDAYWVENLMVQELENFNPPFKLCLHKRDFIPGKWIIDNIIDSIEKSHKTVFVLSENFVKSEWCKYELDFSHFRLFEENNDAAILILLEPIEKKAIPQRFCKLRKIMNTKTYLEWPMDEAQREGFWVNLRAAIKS

With “OPN-301 anti-TLR2 monoclonal antibody (mouse Toll-like Receptor 2 (TLR2) antibody, clone T2.5, HyCult Biotechnology)”, the TNF-alpha production from U937 cells stimulated with 100 ng/ml Pam3CSK4 was 30 ng/mL.
